According to patent US20240336661A1, “PEPTIDES DERIVED FROM RUMINOCOCCUS TORQUES” (University of Copenhagen, priority 2021, published 2024):

Columns and labels:
[1] = tested on: human visceral white pre-adipocytes; assay: Thermogenesis/browning gene expression in human visceral white pre-adipocytes (q-PCR); type: cell-based; settings: human white preadipocytes, treatment from third day of differentiation, harvested after 14 days
Procedure: FIG. 9. Exposure of recombinant RUCILP2 to human visceral white pre-adipocytes or murine inguinal white adipocytes causes up-regulation of the expression of genes involved in thermogenesis/browning. Upper panel: mRNA expression level of adipocyte differentiation marker genes including Ucp1, Pparγ1, Dio2, and Cox2 and brown adipocyte-selective genes including Cpt1b and Ebf2 on human white preadipocytes (HWP). Human white preadipocytes were cultured until 80% confluent and switched into differentiation media (with 0.3 ml/ml fetal calf serum, 8 ug/ml d-biotin, 0.5 ug/ml insulin, 400 ng/ml dexamethasone). The differentiation process to mature adipocytes was completed after 12-14 days. The treatment of RUCILP2 started from the third day of differentiation. Cells were harvested after 14 days of differentiation and the gene expressions were quantified by q-PCR. […] Statistical significance was determined by unpaired two-tailed Student's t test. *, p<0.05 vs 0 nM RUCILP2.
FIG. 28. […] Cells were harvested after 14 days of differentiation and the indicated genes were quantified by q-PCR. […] Cells were harvested after 6 days of differentiation and thermogenesis gene were quantified by q-PCR. […] Cells were harvested after 4 days of differentiation and expression of myogenesis genes were quantified by q-PCR. […] Statistical significance was determined by unpaired two-tailed Student's t test, *, p<0.05 […]

murine C2C12 myoblasts = assay: Myotube formation and myogenesis gene expression in C2C12 myoblasts; type: cell-based, mouse
Procedure: FIG. 12. […] The C2C12 myotubes were treated with indicated doses of RUCILP2 overnight and myotube images were collected at magnification, ×10.
FIG. 28. […] White preadipocytes from human visceral fat (C-12732, PromoCell) were cultured until 80% confluent and switched into differentiation media (with 0.3 ml/ml of fetal calf serum (FCS), 8 ug/ml of d-biotin, 0.5ug/ml of insulin, 400 ng/ml of dexamethasone) in the presence of 15 nM of 21-AABP2. The differentiation process to mature adipocytes was completed after 14 days. Cells were harvested after 14 days of differentiation and the indicated genes were quantified by q-PCR. Inguinal fat tissues from 6-week-old wild-type C57BL/6J female mice were dissected and washed with PBS, minced and digested for 1 hour at 37° C. in PBS containing 10 mM CaCl2, 2.4 U/ml dispase II (Roche) and 10 mg/ml collagenase D (Roche). After adding warm DMEM/F12 (1:1) with 10% FCS, digested tissue was filtered through a […] cell strainer and centrifuged at 600×g for 10 minutes. Pellet was resuspended by 40 ml DMEM/F12 (1:1) with 10% FCS and filtered through a […] cell strainer followed by centrifugation at 600×g for 10 minutes. Pelleted inguinal stromal vascular cells were grown to confluence and split onto 12-well plates. The cells were induced to differentiate by treatment with […], 0.5 mM isobutyl methyl xanthine for 2 days. After that, cells were maintained in […] for 4 days with medium change every other day. The cells were treated with 15 nM of 21-AABP2 every other day during 6 days of differentiation. Cells were harvested after 6 days of differentiation and thermogenesis gene were quantified by q-PCR. C2C12 myoblasts (CRL-1772, ATCC) were cultured until 80% confluent and switched into differentiation media (with 2% horse serum). The treatment with 21-AABP2 started from the second day of differentiation. Cells were harvested after 4 days of differentiation and expression of myogenesis genes were quantified by q-PCR. Data are presented as mean+/−SEM of one representative experiment done in biological triplicates. Statistical significance was determined by unpaired two-tailed Student's t test, *, p<0.05
FIG. 29. […] Representative images of myoblasts (CRL-1772, ATCC) at 24h of differentiation in the presence of phosphate buffered saline (PBS, blank) or 21-AABP2 (15 nM). Presented images were from one representative experiment done in biological triplicates.
C2C12 cells were seeded on 12-well plates under DMEM/F-12 medium (Dulbecco's Modified Eagle Medium/Nutrient Mixture F-12, Fisher Scientific, #11524436), supplemented with 10% FBS (Fetal Bovine Serum, Fisher Scientific, #11550356) and 1% Penicillin-Streptomycin (Fisher Scientific, #11548876). Cell cultures were maintained in a humidified chamber with 5% CO2 at 37° C., and culture media were changed every 2-3 days.
At approximately 80% confluence, 10% fetal bovine serum was replaced with 2% horse serum to induce C2C12 myoblast cells to differentiate into myotubes. Twenty-four hours later (day 1 of the differentiation), the cells were treated with recombinant RUCILP2 or commercial recombinant irisin (Sigma, #SRP8039-10UG and Phoenix pharmaceuticals, #067-29A) or saline. For integrin inhibitor treatment, cells were treated with 10 μM of CycloRGDyK (Selleckchem, #S7844) for 10 minutes and washed with PBS before treated with recombinant RUCILP2 or commercial recombinant irisin or saline. At day three, the cells were refreshed with the same media as day one. After treatments for six hours on day 3, C2C12 cells were harvested for qRT-PCR analysis.
C2C12 myoblasts were cultured until 80% confluent and switched into differentiation media (with 2% horse serum). The treatment with 21-AABP2 started from the second day of differentiation. Representative images of the formed myotubes at 24h of differentiation in the presence of PBS (blank) or 21-AABP2 (15 nM) were captured. […]

Molecule	expression of genes involved in thermogenesis/browning (Ucp1, Pparγ1, Dio2, Cox2, Cpt1b, Ebf2) [1]	myotube formation (murine C2C12 myoblasts; C2C12, treated overnight)	expression of Heyl (murine C2C12 myoblasts; C2C12 myoblasts, dose-response)	myotube formation markers Sox8 and Stat3 (murine C2C12 myoblasts; C2C12 myoblasts, dose-response)
RUCILP2: 87 amino acid irisin-like polypeptide cleaved from the Ruminococcus torques FNDC5-like protein RUMTOR_00181; recombinant, 6-His-tagged from E. coli (protein, 6-His tag; Ruminococcus torques, 87 amino acid irisin-like polypeptide cleaved from the Ruminococcus torques FNDC5-like protein RUMTOR_00181; recombinant, 6-His-tagged from E. coli) APVDVKVSEITETSAKASWKNAADGKEAAGYNVYVDGVKLNKELLTEASCGLTNLKAETTYFVEVTAVDAAGNESVKSEKVTFKTLK	up-regulation	induces myotube formation	more clear dose-dependence response	less dose-dependent
RUCILP1: 88 amino acid FNIII domain polypeptide of RUMTOR_00181 from Ruminococcus torques (protein, Ruminococcus torques, 88 amino acid FNIII domain polypeptide of RUMTOR_00181 from Ruminococcus torques) APVDVKVSEVTETSAKVSWKNAADGKEAAGYNVYVDGTKVNEELIAETTYNVSSLKDGTTYSVEVTAVDAAGEESAKSEKVEFTTVKK	–	–	–	less dose-dependent
